{"source": "patent US20220289798A1", "about": "(published 2022)", "binders": {"B1": {"name": "NK (other)", "chain": "MKSLTHRRFGGSGGSPFSGLSSIAVRSGSYLDAIIIDGVHHGGSGGNLSPTFTFGSGEYISNMTIRSGDYIDNISFETNQGRRFGPYGGSGGSANTLSNVRVIQINGSAGDYLDSLDIYYEQY"}, "B2": {"name": "NK 2K (other)", "chain": "B1 chain", "modifications": "2,000 MW PEG coupled by NHS ester to a primary amine. The intended site is the added N-terminal Lys, pos 2, written K; the N-terminal amine is also possible. At least one PEG per dimer. The exact site and number of PEGs are not determined."}, "B3": {"name": "CK 20K (other)", "chain": "MSLTHRRFGGSGGSPFSGLSSIAVRSGSYLDAIIIDGVHHGGSGGNLSPTFTFGSGEYISNMTIRSGDYIDNISFETNQGRRFGPYGGSGGSANTLSNVRVIQINGSAGDYLDSLDIYYEQYK", "modifications": "20,000 MW PEG coupled by NHS ester to a primary amine. The intended site is the added C-terminal Lys, pos 123, written K. At least one PEG per dimer. The exact site and number of PEGs are not determined."}, "B4": {"name": "CK (other)", "chain": "B3 chain"}, "B5": {"name": "Q 20K (other)", "chain": "MSLTHRKFGGSGGSPFSGLSSIAVRSGSYLDAIIIDGVHHGGSGGNLSPTFTFGSGEYISNMTIRSGDYIDNISFETNQGRRFGPYGGSGGSANTLSNVKVIQINGSAGDYLDSLDIYYEQY", "modifications": "20,000 MW PEG coupled by NHS ester to a primary amine. The candidate sites are Lys pos 7 and Lys pos 100, both written K. At least one PEG per dimer. The exact site and number of PEGs are not determined."}, "B6": {"name": "Q (other)", "chain": "B5 chain"}, "B7": {"name": "M78K 20K (other)", "chain": "B5 chain with K7R, Q79K, K100R", "modifications": "chain 1 pos 79: Lys carrying 20,000 MW PEG by NHS-ester amine coupling, written K. It is the only lysine in the chain. At least one PEG per dimer. The exact site and occupancy were not measured."}, "B8": {"name": "M78K 2K (other)", "chain": "B5 chain with K7R, Q79K, K100R", "modifications": "chain 1 pos 79: Lys carrying 2,000 MW PEG by NHS-ester amine coupling, written K. It is the only lysine in the chain. At least one PEG per dimer. The exact site and occupancy were not measured."}, "B9": {"name": "M78K (other)", "chain": "B5 chain with K7R, Q79K, K100R"}, "B10": {"name": "NK 20K Direct (other)", "chain": "B1 chain", "modifications": "20,000 MW PEG coupled by NHS ester to a primary amine. The intended site is the added N-terminal Lys, pos 2, written K; the N-terminal amine is also possible. At least one PEG per dimer. The exact site and number of PEGs are not determined."}, "B11": {"name": "NK 2K Direct (other)", "chain": "B1 chain", "modifications": "2,000 MW PEG coupled by NHS ester to a primary amine. The intended site is the added N-terminal Lys, pos 2, written K; the N-terminal amine is also possible. At least one PEG per dimer. The exact site and number of PEGs are not determined."}, "B12": {"name": "CK 20K Direct (other)", "chain": "B3 chain", "modifications": "20,000 MW PEG coupled by NHS ester to a primary amine. The intended site is the added C-terminal Lys, pos 123, written K. At least one PEG per dimer. The exact site and number of PEGs are not determined."}, "B13": {"name": "Q 20K Direct (other)", "chain": "B5 chain", "modifications": "20,000 MW PEG coupled by NHS ester to a primary amine. The candidate sites are Lys pos 7 and Lys pos 100, both written K. At least one PEG per dimer. The exact site and number of PEGs are not determined."}, "B14": {"name": "M78K2K Rx Direct (other)", "chain": "B5 chain with K7R, Q79K, K100R", "modifications": "chain 1 pos 79: Lys carrying 2,000 MW PEG by NHS-ester amine coupling, written K. It is the only lysine in the chain. At least one PEG per dimer. The exact site and occupancy were not measured."}, "B15": {"name": "M78K20K Rx (other)", "chain": "B5 chain with K7R, Q79K, K100R", "modifications": "chain 1 pos 79: Lys carrying 20,000 MW PEG by NHS-ester amine coupling, written K. It is the only lysine in the chain. At least one PEG per dimer. The exact site and occupancy were not measured."}, "B16": {"name": "NK 20K (other)", "chain": "B1 chain", "modifications": "20,000 MW PEG coupled by NHS ester to a primary amine. The intended site is the added N-terminal Lys, pos 2, written K; the N-terminal amine is also possible. At least one PEG per dimer. The exact site and number of PEGs are not determined."}}, "note": "Changes are numbered by the printed parent chain. Names may count otherwise.", "data": [{"molecular_target": "Gp120 (HIV)", "experiment": "ELISA", "units": {"EC50": "µg/mL"}, "values": [{"binder": "B1", "EC50": 0.015}, {"binder": "B2", "EC50": 0.0608}, {"binder": "B3", "EC50": 0.0905}, {"binder": "B4", "EC50": 0.0105}, {"binder": "B5", "EC50": 0.0336}, {"binder": "B6", "EC50": 0.00838}, {"binder": "B7", "EC50": 0.304}, {"binder": "B8", "EC50": 0.0338}, {"binder": "B9", "EC50": 0.0111}]}, {"molecular_target": "Gp120 (HIV)", "experiment": "direct ELISA; direct ELISA", "units": {"EC50": "ng/mL"}, "values": [{"binder": "B10", "EC50": 0.0173}, {"binder": "B11", "EC50": 0.0875}, {"binder": "B12", "EC50": 0.029}, {"binder": "B13", "EC50": 0.0355}, {"binder": "B14", "EC50": 0.332}, {"binder": "B15", "EC50": 0.0624}]}, {"molecular_target": "Gp120 (HIV)", "experiment": "indirect ELISA; indirect ELISA", "units": {"EC50": "µg/mL"}, "values": [{"binder": "B16", "EC50": 0.0264}, {"binder": "B2", "EC50": 0.00745}, {"binder": "B3", "EC50": 0.0141}, {"binder": "B5", "EC50": 0.0163}, {"binder": "B7", "EC50": 0.0192}, {"binder": "B8", "EC50": 0.0109}]}]}
